{"source": "patent US20200054763A1", "about": "(DEBIOPHARM INTERNATIONAL S A, published 2020)", "binders": {"B1": {"name": "IMGN529 (naratuximab emtansine) (antibody, V domains shown)", "VH": "QVQVQESGPGLVAPSQTLSITCTVSGFSLTTSGVSWVRQPPGKGLEWLGVIWGDGSTNYHPSLKSRLSIKKDHSKSQVFLKLNSLTAADTATYYCAKGGYSLAHWGQGTLVTVSS", "VL": "DIQMTQSPSSLSVSVGERVTITCRASENIRSNLAWYQQKPGKSPKLLVNVATNLADGVPSRFSGSGSGTDYSLKINSLQPEDFGTYYCQHYWGTTWTFGQGTKLEIKR", "modifications": "maytansinoid DM1 linked through the SMCC linker; attachment residues and chain not stated"}}, "biological_target": "T1, human CD37 (human, UniProt P11049 1-281)", "T1 sequence": "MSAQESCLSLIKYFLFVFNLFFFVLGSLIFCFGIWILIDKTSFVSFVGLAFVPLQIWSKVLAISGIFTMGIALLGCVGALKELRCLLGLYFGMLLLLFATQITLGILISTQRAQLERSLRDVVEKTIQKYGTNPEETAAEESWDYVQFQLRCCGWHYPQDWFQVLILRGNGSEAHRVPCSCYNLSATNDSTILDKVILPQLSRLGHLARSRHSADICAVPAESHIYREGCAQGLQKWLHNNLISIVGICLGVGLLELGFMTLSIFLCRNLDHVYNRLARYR", "assay": "cell-based or functional assay", "data": [{"binder": "B1", "values": [{"measurement": "median IC50, cell proliferation (MTT assay, 72 hours), B cell lymphoma cell lines (n=46)", "result": 0.45, "unit": "nM"}, {"measurement": "median IC50, cell proliferation (MTT assay, 72 hours), T cell lymphoma cell lines (n=8)", "result": 22.5, "unit": "nM"}, {"measurement": "median IC50, cell proliferation (MTT assay, 72 hours), fifty-four lymphoma cell lines", "result": 0.79, "unit": "nM"}]}]}
